# In patent US20230406886A1 (DAEGU GYEONGBUK INSTITUTE OF SCIENCE AND TECHNOLOGY, published 2023):
# Target: SARS-CoV2 spike protein S1 receptor binding domain (RBD) (SARS-CoV2, UniProt P0DTC2 319-541)
row,Binder,Kd
1,COVID-19 therapeutic protein CTP-γ1 (designed binder) MKASSLADNVYNTNITKENVQNMNEEQAKTFLDKFNHEAEDLFYQSSGLGKGDFR,47.5 nM
2,COVID-19 therapeutic protein CTP-γ2 (designed binder) MKESSLADNVYNTNITKENVQNMNEEQAKTFLDKFNHEAEDLFYQSSGLGKGDFR,42.8 nM
3,COVID-19 therapeutic protein CTP-γ3 (designed binder) MKASELADNVYNTNITKENVQNMNEEQAKTFLDKFNHEAEDLFYQSSGLGKGDFR,39.2 nM
4,GEFADKLKNELAKTEEQAKTFLDKFNHEAEDLFYQSSGLGKGDFR (designed binder) [COVID-19 therapeutic protein CTP-δ1],56.3 nM
5,COVID-19 therapeutic protein CTP-α1 (designed binder) MKSELASNVYNTNITKENVQNMNEEQAKTFLDKFNHEAEDLFYQSSGLGKGDFR,37.8 nM
6,COVID-19 therapeutic protein CTP-α3 (designed binder) MKSQLAENVYNTNITKENVQNMNEEQAKTFLDKFNHEAEDLFYQSSGLGKGDFR,35.7 nM
7,COVID-19 therapeutic protein CTP-α2 (designed binder) MKSDLASNVYNTNITKENVQNMNEEQAKTFLDKFNHEAEDLFYQSSGLGKGDFR,50.4 nM
8,COVID-19 therapeutic protein CTP-β2 (designed binder) MESELASVNYNTNITKENVQANGEEQAKTFLDKFNHEAEDLFYQSSGLGKGDFR,42.9 nM
9,COVID-19 therapeutic protein CTP-β3 (designed binder) MESELASNVYNTNITKENVQNMNEEQAKTFLDKFNHEAEDLFYQSSGLGKGDFR,56.4 nM
10,COVID-19 therapeutic protein CTP-β1 (designed binder) MKSELASVNYNTNITKENVQANGEEQAKTFLDKFNHEAEDLFYQSSGLGKGDFR,82 nM
